For this data set, the target named is pro-uPA (pro-urokinase-type plasminogen activator, single-chain zymogen form of uPA) (UniProt P00749).

Sequence of soluble His-tagged hepsin comprising the entire extracellular domain of human hepsin (Arg45-Leu417) (chain, as listed by the source): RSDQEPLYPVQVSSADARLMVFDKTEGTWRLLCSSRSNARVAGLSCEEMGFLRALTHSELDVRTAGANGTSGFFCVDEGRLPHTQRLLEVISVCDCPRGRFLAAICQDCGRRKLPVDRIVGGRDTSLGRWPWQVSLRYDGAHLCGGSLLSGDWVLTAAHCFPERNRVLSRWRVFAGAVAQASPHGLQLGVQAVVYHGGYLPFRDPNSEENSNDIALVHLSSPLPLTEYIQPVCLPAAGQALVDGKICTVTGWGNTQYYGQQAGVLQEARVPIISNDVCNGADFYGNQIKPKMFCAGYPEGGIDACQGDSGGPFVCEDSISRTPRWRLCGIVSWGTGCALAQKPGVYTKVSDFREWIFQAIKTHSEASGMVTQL

In the case of “soluble His-tagged hepsin comprising the entire extracellular domain of human hepsin (Arg45-Leu417)”, the “cleavage of pro-uPA (SDS-PAGE, 1.5 uM pro-uPA, 15 nM hepsin)” value is listed as “Incubation of pro-uPA with hepsin resulted in a time-dependent cleavage of the single-chain form into the two-chain form”; the k (first-order rate constant of pro-uPA activation) is 0.0871 min⁻¹; the kcat/Km of pro-uPA activation is 484000 M⁻¹ s⁻¹.

The values are drawn from US20100061996.
